Patent US7427404

target: monoclonal anti-S1 antibody 1B7; experiment: competition RIA: 1B7 coated on plate, 125I-PT displaced by unlabelled toxin

First: PT-13L/129G (from UniProt P04978 28-226; P04979 29-227; P0A3R5 43-152; P04981 35-133)
Second: PT-26I/129G (from UniProt P04978 28-226; P04979 29-227; P0A3R5 43-152; P04981 35-133)
The Ka of the first is 2.4-fold higher: 1.3e+08 M⁻¹ for the first, 5.5e+07 M⁻¹ for the second.

“PT-129G (from UniProt P04978 28-226; P04979 29-227; P0A3R5 43-152; P04981 35-133)” gave a Ka of 2.1e+08 M⁻¹.
